In publication PMC4930401:

Biological target: BF520.1 (human (infant BF520))
Assay: BLI

BF520.W14.E3 native-like SOSIP trimer (complex)
Kd: 8 nM
